Data set [1] has as its system HeLa Kyoto. The experiment in a line: solubility change mitosis vs G1/S (difference of NP-40 vs SDS log2 ratios) (log2 ratio difference); higher = more soluble in mitosis.
For data set [2], the system named is HeLa Kyoto. As to the kind of experiment: thermal stability score vs G1/S (z-score of summed log2 fold changes over temperatures); higher = more thermally stable than in G1/S.
The test system of data set [3] is HeLa Kyoto. The experiment in a line: melting temperature (median over replicates), in situ; higher = more thermally stable.
For data set [4], the system named is HeLa Kyoto. The experiment in a line: solubility in G1/S (NP-40 vs SDS abundance) (log2 ratio); higher = more soluble. As to conditions: cell cycle stage: G1/S.
Setting [5] is: cell cycle stage: early G1 (4.5 h after nocodazole release).
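For melting temperature (median over replicates), in situ in this document: HeLa Kyoto cells synchronized by double thymidine or nocodazole block, proteins quantified by TMT10plex mass spectrometry, three independent biological replicates.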
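For solubility change mitosis vs G1/S (difference of NP-40 vs SDS log2 ratios) in this document: synchronized HeLa Kyoto cells (double thymidine block for G1/S, nocodazole release for mitosis), protein amounts in NP-40 versus SDS lysates quantified by mass spectrometry, three biological replicates.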
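For solubility in G1/S (NP-40 vs SDS abundance) in this document: HeLa Kyoto cells arrested at G1/S by double thymidine block, proteins quantified by TMT10plex mass spectrometry in mild NP-40 versus SDS extracts, three biological replicates.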
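For thermal stability score vs G1/S (z-score of summed log2 fold changes over temperatures) in this document: synchronized HeLa Kyoto cells, proteins quantified by TMT10plex mass spectrometry, three biological replicates, mitosis taken 0.5 h after nocodazole release, G1/S directly after double thymidine block.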

For “MEPAEQPSELVSAEGRNRKAVLCQRCGSRVLQPGTALFSRRQLFLPSMRKKPALSDGSNPDGDLLQEHWLVEDMFIFENVGFTKDVGNIKFLVCADCEIGPIGWHCLDDKNSFYVALERVSHE [RABIF]”, in data set [1], the “solubility change mitosis (log2)” value was -0.0782. Further, the thermal stability score stood at 0.827 in data set [2] (setting [5]) and 0.411 in data set [2] (cell cycle stage: mitosis). The melting temperature in data set [3] (cell cycle stage: G1/S) stood at 52.2 °C; in data set [3] (cell cycle stage: mitosis), 51.7 °C. In data set [4], the “solubility in G1/S (log2)” value was 0.225.

Consider “MEPAPSEVRLAVREAIHALSSSEDGGHIFCTLESLKRYLGEMEPPALPREKEEFASAHFSPVLRCLASRLSPAWLELLPHGRLEELWASFFLEGPADQAFLVLMETIEGAAGPSFRLMKMARLLARFLREGRLAVLMEAQCRQQTQPGFILLRETLLGKVVALPDHLGNRLQQENLAEFFPQNYFRLLGEEVVRVLQAVVDSLQGGLDSSVSFVSQVLGKACVHGRQQEILGVLVPRLAALTQGSYLHQRVCWRLVEQVPDRAMEAVLTGLVEAALGPEVLSRLLGNLVVKNKKAQFVMTQKLLFLQSRLTTPMLQSLLGHLAMDSQRRPLLLQVLKELLETWGSSSAIRHTPLPQQRHVSKAVLICLAQLGEPELRDSRDELLASMMAGVKCRLDSSLPPVRRLGMIVAEVVSARIHPEGPPLKFQYEEDELSLELLALASPQPAGDGASEAGTSLVPATAEPPAETPAEIVDGGVPQAQLAGSDSDLDSDDEFVPYDMSGDRELKSSKAPAYVRDCVEALTTSEDIERWEAALRALEGLVYRSPTATREVSVELAKVLLHLEEKTCVVGFAGLRQRALVAVTVTDPAPVADYLTSQFYALNYSLRQRMDILDVLTLAAQELSRPGCLGRTPQPGSPSPNTPCLPEAAVSQPGSAVASDWRVVVEERIRSKTQRLSKGGPRQGPAGSPSRFNSVAGHFFFPLLQRFDRPLVTFDLLGEDQLVLGRLAHTLGALMCLAVNTTVAVAMGKALLEFVWALRFHIDAYVRQGLLSAVSSVLLSLPAARLLEDLMDELLEARSWLADVAEKDPDEDCRTLALRALLLLQRLKNRLLPPASP [TELO2]”, for which, in data set [1], the “solubility change mitosis (log2)” value is -0.103. The thermal stability score in data set [2] (setting [5]) was -0.195; in data set [2] (cell cycle stage: mitosis), 0.325. For the same sequence, the melting temperature in data set [3] (cell cycle stage: G1/S) came out at 48.8 °C; in data set [3] (cell cycle stage: mitosis), 49.1 °C. In addition, the “solubility in G1/S (log2)” value in data set [4] is -0.341.

Turning to “MEPATAPRPDMAPELTPEEEQATKQFLEEINKWTVQYNVSPLSWNVAVKFLMARKFDVLRAIELFHSYRETRRKEGIVKLKPHEEPLRSEILSGKFTILNVRDPTGASIALFTARLHHPHKSVQHVVLQALFYLLDRAVDSFETQRNGLVFIYDMCGSNYANFELDLGKKVLNLLKGAFPARLKKVLIVGAPIWFRVPYSIISLLLKDKVRERIQILKTSEVTQHLPRECLPENLGGYVKIDLATWNFQFLPQVNGHPDPFDEIILFSLPPALDWDSVHVPGPHAMTIQELVDYVNARQKQGIYEEYEDIRRENPVGTFHCSMSPGNLEKNRYGDVPCLDQTRVKLTKRSGHTQTDYINASFMDGYKQKNAYIGTQGPLENTYRDFWLMVWEQKVLVIVMTTRFEEGGRRKCGQYWPLEKDSRIRFGFLTVTNLGVENMNHYKKTTLEIHNTEERQKRQVTHFQFLSWPDYGVPSSAASLIDFLRVVRNQQSLAVSNMGARSKGQCPEPPIVVHCSAGIGRTGTFCSLDICLAQLEELGTLNVFQTVSRMRTQRAFSIQTPEQYYFCYKAILEFAEKEGMVSSGQNLLAVESQ [PTPN9]”, the “solubility change mitosis (log2)” value in data set [1] is -0.094. For the same sequence, the thermal stability score was 1.02 in data set [2] (setting [5]) and -0.717 in data set [2] (cell cycle stage: mitosis). The figures for the melting temperature in data set [3] (cell cycle stage: G1/S) and in data set [3] (cell cycle stage: mitosis) were 51.1 °C and 51.7 °C, respectively. The “solubility in G1/S (log2)” value in data set [4] was -0.0379.

As to “MEPFTNDRLQLPRNMIENSMFEEEPDVVDLAKEPCLHPLEPDEVEYEPRGSRLLVRGLGEHEMEEDEEDYESSAKLLGMSFMNRSSGLRNSATGYRQSPDGACSVPSARTMVVCAFVIVVAVSVIMVIYLLPRCTFTKEGCHKKNQSIGLIQPFATNGKLFPWAQIRLPTAVVPLRYELSLHPNLTSMTFRGSVTISVQALQVTWNIILHSTGHNISRVTFMSAVSSQEKQAEILEYAYHGQIAIVAPEALLAGHNYTLKIEYSANISSSYYGFYGFSYTDESNEKKYFAATQFEPLAARSAFPCFDEPAFKATFIIKIIRDEQYTALSNMPKKSSVVLDDGLVQDEFSESVKMSTYLVAFIVGEMKNLSQDVNGTLVSIYAVPEKIGQVHYALETTVKLLEFFQNYFEIQYPLKKLDLVAIPDFEAGAMENWGLLTFREETLLYDSNTSSMADRKLVTKIIAHELAHQWFGNLVTMKWWNDLWLNEGFATFMEYFSLEKIFKELSSYEDFLDARFKTMKKDSLNSSHPISSSVQSSEQIEEMFDSLSYFKGSSLLLMLKTYLSEDVFQHAVVLYLHNHSYASIQSDDLWDSFNEVTNQTLDVKRMMKTWTLQKGFPLVTVQKKGKELFIQQERFFLNMKPEIQPSDTSYLWHIPLSYVTEGRNYSKYQSVSLLDKKSGVINLTEEVLWVKVNINMNGYYIVHYADDDWEALIHQLKINPYVLSDKDRANLINNIFELAGLGKVPLKRAFDLINYLGNENHTAPITEALFQTDLIYNLLEKLGYMDLASRLVTRVFKLLQNQIQQQTWTDEGTPSMRELRSALLEFACTHNLGNCSTTAMKLFDDWMASNGTQSLPTDVMTTVFKVGAKTDKGWSFLLGKYISIGSEAEKNKILEALASSEDVRKLYWLMKSSLNGDNFRTQKLSFIIRTVGRHFPGHLLAWDFVKENWNKLVQKFPLGSYTIQNIVAGSTYLFSTKTHLSEVQAFFENQSEATFRLRCVQEALEVIQLNIQWMEKNLKSLTWWL [LNPEP]”, in data set [1], the “solubility change mitosis (log2)” value is -0.15. Moreover, the thermal stability score in data set [2] (setting [5]) and in data set [2] (cell cycle stage: mitosis) was -1.44 each time. Besides, the melting temperature in data set [3] (cell cycle stage: G1/S) was 56.8 °C; in data set [3] (cell cycle stage: mitosis) it was 57.1 °C. In addition, the “solubility in G1/S (log2)” value in data set [4] came out at 0.198.

Turning to “MEPGPDGPAASGPAAIREGWFRETCSLWPGQALSLQVEQLLHHRRSRYQDILVFRSKTYGNVLVLDGVIQCTERDEFSYQEMIANLPLCSHPNPRKVLIIGGGDGGVLREVVKHPSVESVVQCEIDEDVIQVSKKFLPGMAIGYSSSKLTLHVGDGFEFMKQNQDAFDVIITDSSDPMGPAESLFKESYYQLMKTALKEDGVLCCQGECQWLHLDLIKEMRQFCQSLFPVVAYAYCTIPTYPSGQIGFMLCSKNPSTNFQEPVQPLTQQQVAQMQLKYYNSDVHRAAFVLPEFARKALNDVS [SRM]”, in data set [1], the “solubility change mitosis (log2)” value is -0.232. For the same sequence, the thermal stability score in data set [2] (setting [5]) was 0.149; in data set [2] (cell cycle stage: mitosis), 0.82. Also, the melting temperature in data set [3] (cell cycle stage: G1/S) is 51.8 °C; in data set [3] (cell cycle stage: mitosis), 51.9 °C. Further, in data set [4], the “solubility in G1/S (log2)” value came out at 0.283.

(Values after the supplement of paper PMC5998384.)
